Assay results reported in patent publication USRE44389.

Experiments:
[1] = biological target: Fcγ receptors on monocytes (human blood); test: FACS on human monocytes, antibody 10 µg/ml
[2] = biological target: Fcγ receptors on granulocytes (human blood); test: FACS on human granulocytes, antibody 10 µg/ml
[3] = biological target: Fcγ receptors on monocytes (human blood); test: FACS on human monocytes, antibody 10 µg/ml; negative control

% monocytes binding antibody [1] [%]	% granulocytes binding antibody [2] [%]	% monocytes binding antibody [3] [%]	Substance
14.5	1.6		HuMab 002 Fc variant IgG4v1 (S228P; L235E) (antibody)
		9.4	Human IgG4 (CLB, the Netherlands), negative control (antibody)
